Drawing on patent US20260117274A1, “ORTHOGONALLY CROSSLINKED PROTEINS, METHODS OF MAKING, AND USES THEREOF” (The Research Foundation for The State University of New York, priority 2022, published 2026), this text covers X-linking yield for twelve molecules.

This assay is described as follows: Intramolecular (inter-strand) crosslinking yield of nanobody/monobodies by mass spectrometry. To be noted: UAA-encoded monobodies, MS characterization (Table 5). From the text:
To probe whether CATK-1 is suitable for inter-strand cross-linking in proteins containing the disulfide bond, we selected a small protein called nanobody NB1, a prototypical single-chain VHH antibody that binds specifically to GFP protein. Based on NB1 structure, there is one disulfide bond formed between Cys-24 and Cys-98, close to a proposed orthogonal crosslinking site at Val-4 and Tyr-106 (FIG. 5a, left). To test orthogonal crosslinking, we placed CATK-1 at Val-4 position to target Tyr-106 located 5.6 Å away on the opposing strand. The BocK- and CATK-1-encoded NB1 were successfully expressed at yields of 14.3 mg L^−1 and 3.5 mg L^−1, respectively (FIG. 5b, left). […] Separately, we also examined the utility of CATK-1 in effecting intramolecular crosslinking in an antibody mimic called monobody. Due to their lack of cysteine residues, small size (˜10 kDa), and evolvable binding affinity and specificity, monobodies represent an ideal protein scaffold for targeting protein-protein interactions in the cytosols of mammalian cells. However, monobodies are cell impermeable, severely limiting their potential. One strategy to potentially overcome this limitation is to combine protein surface supercharging with orthogonal crosslinking to increase stability in the endosomes and thus improve cytosolic delivery. To this end, we designed an overall +10 charged monobody NSa1, termed NSa1(+10), using the Supercharge protocol on ROSIE Rosetta Online Server and added an amber codon at Ala-13 position. Based on the NSa1 structure, A13CATK-1 is well-positioned to react with the proximal Tyr-92 on the opposing strand at C-terminus (FIG. 5a, right). Accordingly, the wild-type and NSa1(+10) mutant proteins encoding CATK-1 or BocK were expressed and purified in good yields (4.1-6.9 mg L^1; FIG. 5b, right). […] The crosslink-containing fragment was identified by LC/MS after trypsin digestion (FIG. 21).
To assess if BeLaK is suitable for orthogonal crosslinking of domain antibodies, we selected NSa1, a monobody-based SHP2 inhibitor, and placed BeLaK at position-13 of the N-terminal β-strand. A panel of supercharged NSa1 mutants carrying overall charges of +6, +8, +11, and +18, respectively, were designed using Supercharge protocol on ROSIE Rosetta Online Server with native NSa1 (˜2 charge) as a template. […] Thus, the supercharged monobodies encoding either BeLaK or BocK were expressed in good yields (2.2˜7.2 mg L^−1; FIG. 42). […] Furthermore, as the positive charge increases, the mobility decreases, likely due to reduced overall negative charge after association with the SDS molecules. MS analysis further confirmed the identities of the supercharged NSa1 mutants (FIG. 34c). Since the unreacted BeLaK-encoded monobodies share the same mass as the crosslinked ones, we treated the purified monobodies with excess β-mercapto-ethanol for 7 days, which accelerates the hydrolysis of the unreacted β-lactam and in turn adds +18 Da to protein mass, and monitored the intact mass change. Using this method, we determined orthogonal crosslinking yields to range from 5% for native NSa1 to more than 50% for +8/+11/+18 mutants (FIG. 42). We attribute the higher yields to the increased conformational dynamics, which promotes proximity-driven crosslinking reactions. The crosslinking sites in +11 and +18 mutants were mapped to Lys-21 and Lys-19, respectively, residues on the nearby β-strand, based on the identified fragment masses after trypsin digestion (FIG. 34d, FIG. 50).
Crosslinking yield determination of BeLaK-encoded NSa1 variants. To quantify the extent of crosslinking, β-mercaptoethanol (20 mM) was added at a final concentration of 2.58 mM (100 equiv, 3 μL) to a solution of purified NSa1 variants (25 μM, 30 μL) in elution buffer (50 mM Na2HPO4, pH=7.4, 300 mM NaCl, 250 mM imidazole). The mixture was incubated at 37° C. overnight. Afterwards, the mixture was removed from the incubator and allowed to incubate at 25° C. for 1 week.

B1: NSa1(+7)-A13BeLaK: supercharged NSa1 monobody encoding BeLaK; SEQ. ID. NO: 11 (protein)
chain: MGSSHHHHHHSSGTENLYFQGVSSKPTKLRVVRXTPTSLKIKWDAPAVTVDYYVITYGEKGRGGYAWQEFEVPGSKRTATISGLKPGVDYTITVYAGYKGYPTYYSSPISINYRT
modifications: BeLaK non-natural residue at position 13; MOD_RES 34 X is N6-(2-Oxoazetidine-1-carbonyl)-L-lysine
notes: supercharged NSa1 monobody encoding BeLaK; ID; NO: 11
As for B1, the X-linking yield was found to be 61%.

B2: NSa1(+10)-A13BeLaK: supercharged NSa1 monobody encoding BeLaK; SEQ. ID. NO: 14 (protein)
chain: MGSSHHHHHHSSGTENLYFQGVSSKPTKLRVVRXTPTSLKIKWDAPAKTVDYYVITYGETGRGGYAWQRFEVPGSKRTATIKGLKPGVDYTITVYAGYKGYPTYYSSPISINYRT
modifications: BeLaK non-natural residue at position 13; MOD_RES 34 X is N6-(2-Oxoazetidine-1-carbonyl)-L-lysine
notes: supercharged NSa1 monobody encoding BeLaK; ID; NO: 14
As to B2, the X-linking yield is 86%.

B3: NSa1(+5)-A13BeLaK-Y92K: supercharged NSa1 monobody encoding BeLaK; SEQ. ID. NO: 7 (protein)
chain: MGSSHHHHHHSSGTENLYFQGVSSKPTKLRVVRXTPTSLKISWDAPAVTVDYYVITYGEKGSGGYAWQEFEVPGSKRTATISGLKPGVDYTITVYAGYKGYPTYYSSPISINKRT
modifications: BeLaK non-natural residue at position 13; MOD_RES 34 X is N6-(2-Oxoazetidine-1-carbonyl)-L-lysine
notes: supercharged NSa1 monobody encoding BeLaK; ID; NO: 7
As for B3, the X-linking yield came to 53%.

B4: NSa1(+17)-A13BeLaK: supercharged NSa1 monobody encoding BeLaK; SEQ. ID. NO: 18 (protein)
chain: MGSSHHHHHHSSGTENLYFQGVKSKPTKLRVVRXTPTSLKISWKAPKKTVDYYVITYGKTGSGGYAWQRFRVPGSKRTAKIKGLKPGVDYTITVYAGYKGYPTYYSSPISINYRT
modifications: BeLaK non-natural residue at position 13; MOD_RES 34 X is N6-(2-Oxoazetidine-1-carbonyl)-L-lysine
notes: supercharged NSa1 monobody encoding BeLaK; ID; NO: 18
B4 displayed a X-linking yield of 87%.

B5: NSa1(+17)-A13BeLaK-Y92K: supercharged NSa1 monobody encoding BeLaK; SEQ. ID. NO: 19 (protein)
chain: MGSSHHHHHHSSGTENLYFQGVKSKPTKLRVVRXTPTSLKISWKAPKKTVDYYVITYGKTGSGGYAWQRFRVPGSKRTAKIKGLKPGVDYTITVYAGYKGYPTYYSSPISINKRT
modifications: BeLaK non-natural residue at position 13; MOD_RES 34 X is N6-(2-Oxoazetidine-1-carbonyl)-L-lysine
notes: supercharged NSa1 monobody encoding BeLaK; ID; NO: 19
On to B5, for which the X-linking yield was 89%.

B6: NSa1(+10)-A13BeLaK-C1: supercharged NSa1 monobody encoding BeLaK, N-terminal Cys; SEQ. ID. NO: 15 and 23 (protein)
chain 1: MGSSHHHHHHSSGTENLYFQGCVSSKPTKLRVVRXTPTSLKIKWDAPAKTVDYYVITYGETGRGGYAWQRFEVPGSKRTATIKGLKPGVDYTITVYAGYKGYPTYYSSPISINYRT
chain 2: MGSSHHHHHHSSGTENLYFQGCVSSKPTKLRVVRXTPTSLKIKWDAPAKTVDYYVITYGETGRGGYAWQRFEVPGSKRTATIKGLKPGVDYTITVYAGYKGYPTYYSSPISINYRT
modifications: BeLaK at position 13; N-terminal Cys; MOD_RES 35 X is N6-(2-Oxoazetidine-1-carbonyl)-L-lysine
notes: supercharged NSa1 monobody encoding BeLaK, N-terminal Cys; ID; NO: 15 and 23
B6 displayed a X-linking yield of 97%.

B7: NSa1(+17)-A13BeLaK-Y92K-C1: supercharged NSa1 monobody encoding BeLaK; SEQ. ID. NO: 20 (protein)
chain: MGSSHHHHHHSSGTENLYFQGCVKSKPTKLRVVRXTPTSLKISWKAPKKTVDYYVITYGKTGSGGYAWQRFRVPGSKRTAKIKGLKPGVDYTITVYAGYKGYPTYYSSPISINKRT
modifications: BeLaK at position 13; N-terminal Cys; MOD_RES 35 X is N6-(2-Oxoazetidine-1-carbonyl)-L-lysine
notes: supercharged NSa1 monobody encoding BeLaK; ID; NO: 20
B7: the X-linking yield was determined as 87%.

B8: NSa1(+10)-A13BeLaK-Y92K-C1: supercharged NSa1 monobody encoding BeLaK; SEQ. ID. NO: 16 (protein)
chain: MGSSHHHHHHSSGTENLYFQGCVSSKPTKLRVVRXTPTSLKIKWDAPAKTVDYYVITYGETGRGGYAWQRFEVPGSKRTATIKGLKPGVDYTITVYAGYKGYPTYYSSPISINKRT
modifications: BeLaK at position 13; N-terminal Cys; MOD_RES 35 X is N6-(2-Oxoazetidine-1-carbonyl)-L-lysine
notes: supercharged NSa1 monobody encoding BeLaK; ID; NO: 16
The molecule B8 had a X-linking yield of 100%.

B9: NSa1(+7)-A13BeLaK-Y92K-C1: supercharged NSa1 monobody encoding BeLaK; SEQ. ID. NO: 12 (protein)
chain: MGSSHHHHHHSSGTENLYFQGCVSSKPTKLRVVRXTPTSLKIKWDAPAVTVDYYVITYGEKGRGGYAWQEFEVPGSKRTATISGLKPGVDYTITVYAGYKGYPTYYSSPISINKRT
modifications: BeLaK at position 13; N-terminal Cys; MOD_RES 35 X is N6-(2-Oxoazetidine-1-carbonyl)-L-lysine
notes: supercharged NSa1 monobody encoding BeLaK; ID; NO: 12
Turning to B9, the X-linking yield is 60%.

B10: NSa1(+5)-A13BeLaK-Y92K-C1: supercharged NSa1 monobody encoding BeLaK; SEQ. ID. NO: 9 (protein)
chain: MGSSHHHHHHSSGTENLYFQGCVSSKPTKLRVVRXTPTSLKISWDAPAVTVDYYVITYGEKGSGGYAWQEFEVPGSKRTATISGLKPGVDYTITVYAGYKGYPTYYSSPISINKRT
modifications: BeLaK at position 13; N-terminal Cys; MOD_RES 35 X is N6-(2-Oxoazetidine-1-carbonyl)-L-lysine
notes: supercharged NSa1 monobody encoding BeLaK; ID; NO: 9
Consider B10, for which the X-linking yield is 25%.

B11: NSa1(+10)-A13BeLaK-C95: supercharged NSa1 monobody encoding BeLaK, C-terminal Cys; SEQ. ID. NO: 22 (protein)
chain: MGSSHHHHHHSSGTENLYFQGVSSKPTKLRVVRXTPTSLKIKWDAPAKTVDYYVITYGETGRGGYAWQRFEVPGSKRTATIKGLKPGVDYTITVYAGYKGYPTYYSSPISINYRTC
modifications: BeLaK at position 13; C-terminal Cys; MOD_RES 34 X is N6-(2-Oxoazetidine-1-carbonyl)-L-lysine
notes: supercharged NSa1 monobody encoding BeLaK, C-terminal Cys; ID; NO: 22
As for B11, the X-linking yield is on record as 22%.

B12: 12VC1(+8)-A13BeLaK-Y92K: monobody 12VC1(+8) encoding BeLaK; SEQ. ID. NO: 2 (protein)
chain: MGSSHHHHHHSSGTENLYFQGVSSVPTKLKVVAXTPTSLLISWDAPAVTVFFYVITYGETGHGVGAFKAFKVPGSKSTATISGLKPGVDYTITVYARGYSKKGPYKPSPISINKRT
modifications: BeLaK non-natural residue at position 13; VARIANT 34 X is Ne-(tert-butoxycarbonyl) lysine or N6-(2-Oxoazetidine-1-carbonyl)-L-lysine
notes: monobody 12VC1(+8) encoding BeLaK; ID; NO: 2
With B12, the X-linking yield is on record as 86%.
